Assay results taken from patent US20140302033A1 (UCB, published 2014).

Assays:
[1] = biological target: T1, Human Serum Albumin (human, UniProt P02768 25-609); assay: kinetics table, analyte HSA, single concentration 50nM; HEK293 material; method not named in Example 4
T1 construct: also called HSA; HAS

[2] = biological target: T1, Human Serum Albumin; assay: kinetics table, analyte HSA, titration 50nM, 25nM, 12.5nM, 6.25nM; HEK293 material; method not named in Example 4
[3] = biological target: T1, Human Serum Albumin; assay: SPR BIAcore T200; Fab-Fv captured by anti-human F(ab')2, albumin as analyte; average of 3
Protocol: (§1) BIA (Biamolecular Interaction Analysis) was performed using a BIAcore T200 (GE Healthcare). Affinipure F(ab′)₂ Fragment goat anti-human IgG, F(ab′)₂ fragment specific (Jackson ImmunoResearch) was immobilised on a CM5 Sensor Chip via amine coupling chemistry to a capture level of ≈5000 response units (RUs). HBS-EP buffer (10 mM HEPES pH 7.4, 0.15 M NaCl, 3 mM EDTA, 0.05% Surfactant P20, GE Healthcare) was used as the running buffer with a flow rate of 10 μl/min. A 10 μL injection of Fab-Fv at 0.75 μg/mL was used for capture by the immobilised anti-human IgG-F(ab′)₂. Human Serum Albumin (HSA), Mouse Serum albumin (MSA) and Cynomolgus Serum Albumin (CSA) was titrated over the captured Fab-Fv at various concentrations (50 nM to 6.25 nM) at a flow rate of 30 μL/min. The surface was regenerated by 2×10 μL injection of 50 mM HCl, followed by a 5 μL injection of 5 mM NaOH at a flowrate of 10 μL/min. Background subtraction binding curves were analysed using the T200evaluation software (version 1.0) following standard procedures. Kinetic parameters were determined from the fitting algorithm.

[4] = biological target: T2, Cynomolgus Serum Albumin (cynomolgus, UniProt A2V9Z4 25-608); assay: as above
T2 construct: also called CSA
Protocol: as §1

[5] = biological target: T3, Mouse Serum albumin (mouse, UniProt P07724 25-608); assay: as above
T3 construct: also called MSA
Protocol: as §1

B1: FabA-dsscFv (CH1-dsscFv) (bispecific antibody)
chain 1: EVQLVESGGGLVQPGGSLRLSCAASGFTFTNYGIHWIRQAPGKGLEWVASISPSGGLTYYRDSVKGRFTISRDDAKNSPYLQMNSLRAEDTAVYYCATGGEGIFDYWGQGTLVTVSSASTKGPSVFPLAPSSKSTSGGTAALGCLVKDYFPEPVTVSWNSGALTSGVHTFPAVLQSSGLYSLSSVVTVPSSSLGTQTYICNVNHKPSNTKVDKKVEPKSCSGGGGSGGGGTGGGGSEVQLLESGGGLVQPGGSLRLSCAVSGIDLSNYAINWVRQAPGKCLEWIGIIWASGTTFYATWAKGRFTISRDNSKNTVYLQMNSLRAEDTAVYYCARTVPGYSTAPYFDLWGQGTLVTVSSGGGGSGGGGSGGGGSGGGGSDIQMTQSPSSVSASVGDRVTITCQSSPSVWSNFLSWYQQKPGKAPKLLIYEASKLTSGVPSRFSGSGSGTDFTLTISSLQPEDFATYYCGGGYSSISDTTFGCGTKVEIKRT
chain 2: DIQMTQSPSSLSASVGDRVTITCRATQSIYNALAWYQQKPGKAPKLLIYNANTLHTGVPSRFSASGSGTDSTLTISSLQPEDFATYYCQQYYDYPLTFGGGTKVEIKRTVAAPSVFIFPPSDEQLKSGTASVVCLLNNFYPREAKVQWKVDNALQSGNSQESVTEQDSKDSTYSLSSTLTLSKADYEKHKVYACEVTHQGLSSPVTKSFNRGEC
- Kd [1]: 1.25 nM
- koff [1]: 0.000199 s⁻¹
- kon [1]: 160000 M⁻¹ s⁻¹
- Kd [2]: 1.29 nM
- koff [2]: 0.000222 s⁻¹
- kon [2]: 172000 M⁻¹ s⁻¹

B2: FabA-dsscFv (CL-dsscFv) (bispecific antibody)
chain 1: DIQMTQSPSSLSASVGDRVTITCRATQSIYNALAWYQQKPGKAPKLLIYNANTLHTGVPSRFSASGSGTDSTLTISSLQPEDFATYYCQQYYDYPLTFGGGTKVEIKRTVAAPSVFIFPPSDEQLKSGTASVVCLLNNFYPREAKVQWKVDNALQSGNSQESVTEQDSKDSTYSLSSTLTLSKADYEKHKVYACEVTHQGLSSPVTKSFNRGECSGGGGSGGGGSGGGGSEVQLLESGGGLVQPGGSLRLSCAVSGIDLSNYAINWVRQAPGKCLEWIGIIWASGTTFYATWAKGRFTISRDNSKNTVYLQMNSLRAEDTAVYYCARTVPGYSTAPYFDLWGQGTLVTVSSGGGGSGGGGSGGGGSGGGGSDIQMTQSPSSVSASVGDRVTITCQSSPSVWSNFLSWYQQKPGKAPKLLIYEASKLTSGVPSRFSGSGSGTDFTLTISSLQPEDFATYYCGGGYSSISDTTFGCGTKVEIKRT
chain 2: EVQLVESGGGLVQPGGSLRLSCAASGFTFTNYGIHWIRQAPGKGLEWVASISPSGGLTYYRDSVKGRFTISRDDAKNSPYLQMNSLRAEDTAVYYCATGGEGIFDYWGQGTLVTVSSASTKGPSVFPLAPSSKSTSGGTAALGCLVKDYFPEPVTVSWNSGALTSGVHTFPAVLQSSGLYSLSSVVTVPSSSLGTQTYICNVNHKPSNTKVDKKVEPKSC
- Kd [1]: 1.28 nM
- koff [1]: 0.000211 s⁻¹
- kon [1]: 165000 M⁻¹ s⁻¹
- Kd [2]: 1.31 nM
- koff [2]: 0.00024 s⁻¹
- kon [2]: 183000 M⁻¹ s⁻¹

B3: A26 Fab-dsFv (645gH5gL4) (bispecific antibody)
heavy: EVQLVESGGGLVQPGGSLRLSCAASGFTFTNYGIHWIRQAPGKGLEWVASISPSGGLTYYRDSVKGRFTISRDDAKNSPYLQMNSLRAEDTAVYYCATGGEGIFDYWGQGTLVTVSSASTKGPSVFPLAPSSKSTSGGTAALGCLVKDYFPEPVTVSWNSGALTSGVHTFPAVLQSSGLYSLSSVVTVPSSSLGTQTYICNVNHKPSNTKVDKKVEPKSCSGGGGSGGGGTGGGGSEVQLLESGGGLVQPGGSLRLSCAVSGIDLSNYAINWVRQAPGKCLEWIGIIWASGTTFYATWAKGRFTISRDNSKNTVYLQMNSLRAEDTAVYYCARTVPGYSTAPYFDLWGQGTLVTVSS
light: DIQMTQSPSSLSASVGDRVTITCRATQSIYNALAWYQQKPGKAPKLLIYNANTLHTGVPSRFSASGSGTDSTLTISSLQPEDFATYYCQQYYDYPLTFGGGTKVEIKRTVAAPSVFIFPPSDEQLKSGTASVVCLLNNFYPREAKVQWKVDNALQSGNSQESVTEQDSKDSTYSLSSTLTLSKADYEKHKVYACEVTHQGLSSPVTKSFNRGECGGGGSGGGGSGGGGSDIQMTQSPSSVSASVGDRVTITCQSSPSVWSNFLSWYQQKPGKAPKLLIYEASKLTSGVPSRFSGSGSGTDFTLTISSLQPEDFATYYCGGGYSSISDTTFGCGTKVEIKRT
notes: Anti-OX40 A26 Fab fused to the disulphide-stabilised anti-albumin Fv 645gH5gL4; In the cell assay (2.4) it was labelled with Alexa Fluor 488; also called A26 Fab-Fv; Fab-Fv
- Kd [3]: 2.93 nM
- koff [3]: 0.000163 s⁻¹
- kon [3]: 58400 M⁻¹ s⁻¹
- Kd [4]: 2.66 nM
- koff [4]: 0.000189 s⁻¹
- kon [4]: 71000 M⁻¹ s⁻¹
- Kd [5]: 4.16 nM
- koff [5]: 0.000368 s⁻¹
- kon [5]: 88600 M⁻¹ s⁻¹
